Measurements published in US6984501.

Target: human Kv2.1 (human) (UniProt Q14721)
Assay: cell-based or functional assay

Work on human Kv2.1 (from UniProt Q14721 1-858) yielded a V0.5 of the activation voltage curve (Boltzmann fit of G/Gmax), whole-cell patch clamp on CHO cells of 10.8 mV and an inactivation time constant of the outward current, whole-cell patch clamp on CHO cells of 7.17 ms.
